Experimental data from the supplement of paper PMC12042874.
± gives the uncertainty stated by the source.

Assay: amyloid nucleation score (Sup35N fusion, yeast selection) (log enrichment); library NNK2; higher = more nucleation; inactive = no reads after selection
In short: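 Yeast lacking psi expressed peptides of 20 random codons fused to Sup35N, received 100 μM copper sulfate for 24 hours, and were then grown for 7 days at 30°C on medium lacking adenine and uracil. Illumina sequencing of input and output plasmid inserts provided the reads. Nucleation scores are DiMSum log enrichments of output over input, centred on the mode of non-aggregating sequences. Any sequence with under 100 input reads was excluded.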

Row | Substance | amyloid nucleation score
1 | SGFMLKWCKY | 0.874 ± 0.55
2 | QTVTCHNNRYVFRLSTMC | 0.71 ± 0.41
3 | SGRLNVSLLGVDSFYTELCA | -0.787 ± 0.54
4 | INQFMRDFLDHLPCAYRVYN | -0.049 ± 0.55
5 | YTLFNDASRLFD | inactive
6 | YCMMPATGICVLDVSVCRDT | 8.289 ± 0.054
7 | RRFPRHLASGRMPV | 1.41 ± 0.32
8 | NQGIKRRLFHNWLNRGRLLF | inactive
9 | LYGIVITTLSSYCGGFLNSR | inactive
10 | ETLSQIMFYVKIIAYDCRNP | 2.66 ± 0.13
11 | IDNSTMDTCIMNRSQFTIRL | -0.412 ± 0.54
12 | WQIGCLADIYSYLPDGNTVG | -0.389 ± 0.4
13 | IQGPIVEFTISIRSSSRRHW | 3.1 ± 0.083
14 | DFYSNEWRGDEICVQLLELV | 0.393 ± 0.66
15 | SGNVYFLQNRFSVAKQNYTL | -0.448 ± 0.79
16 | TRKILEMVFLLTAVNYNGVP | -1.12 ± 0.26
17 | VKALNKLGAKINLMIRFVRS | -0.306 ± 0.39
18 | YDKSYFVFFNP | 1.36 ± 0.27
19 | YTNSMTHAYTVLWRYMSPTN | 3.52 ± 0.084
20 | STCKLWGVQWFPGGEDRNWK | -0.155 ± 0.42
21 | EIHYMCELIMQWVYSGLTSR | 0.607 ± 0.35
22 | SRFCEH | -0.164 ± 0.39

Row | Substance | amyloid nucleation score
23 | YMVDIGSHYKVCVMFHWTFS | -0.88 ± 0.45
24 | SVIASWKSCLSLLVFQH | -0.695 ± 0.64
25 | FDSFPSS | 0.529 ± 0.2
26 | LVKLEYALSVFRENSGSNLN | 1.07 ± 0.3
27 | SCRVLIGV | 0.878 ± 0.46
28 | KTHIREVCEGVTIIHKWTWV | -0.508 ± 0.63
29 | RSFHVEYILM | 3.23 ± 0.068
30 | LASFGLRGVRQCQMNAE | 1.78 ± 0.15
31 | KVRKYSEFSLQSQCDPLGRG | 0.455 ± 0.5
32 | IRSLFLVDYNRMIGMPKGMY | 1.55 ± 0.2
33 | QRRQVDSVM | 1.27 ± 0.27
34 | RDIGKYRMYDLTKVRAITLT | -0.353 ± 0.35
35 | FTCTGRRVYAQLKNVFIFVL | 1.92 ± 0.19
36 | CSNSFLI | -0.868 ± 1.1
37 | QLFGFGYVLVV | -1.12 ± 0.78
38 | NLTNRYFNFSRTEPCNKYLT | 0.895 ± 0.81
39 | ELFRDNTGSSVVGNSRSSDA | 0.438 ± 0.17
40 | VEVYTVSSYVDYVYPDCRGV | 0.418 ± 0.62
41 | ANGIFAEGGVREDSIH | inactive
42 | DRWMTGMDAVYLHRRGPLFF | 0.13 ± 0.8
43 | FYLGVALVHNKAWLFLWKDD | inactive
44 | CAIFVRERW | 5.03 ± 0.089

Row | Substance | amyloid nucleation score
45 | KEMARTSSSRCDITLQWPAS | 0.562 ± 0.44
46 | KQLRSSVSSSYYHGNTVCAE | 0.794 ± 0.39
47 | RGTVVTGF | 1.3 ± 0.44
48 | SEFRHGSYYSGVTEVRFWVQ | 2.26 ± 0.11
49 | GAHNMREGAAPGRKRVVLAM | 1.22 ± 0.35
50 | WFVGCHTVRR | 0.84 ± 0.33
51 | LLVGLIASPPGGTGVTLFPT | 4.15 ± 0.049
52 | LKWDASKAWILRCQCFRELW | -0.678 ± 0.76
53 | VGAMLKWLT | 0.378 ± 0.23
54 | LYCDECISWYAHDWLNI | 0.409 ± 0.45
55 | PDIYLYFLKKVMRS | -1.57 ± 1.1
56 | YPLGS | inactive
57 | HWGSVAGDFWGFVVWSRFGR | 0.234 ± 0.34
58 | LSILCGDCSDGRS | -0.245 ± 0.2
59 | FRNSTATLYSVGSFTSKTQL | 1.03 ± 0.19
60 | VERVPGCTRTRTFWLNSSDW | 0.591 ± 0.25
61 | GMSSIINVELAGQWTWVKFN | 4.18 ± 0.066
62 | NIQPEK | -0.587 ± 0.39
63 | YGFEAFWDNLQPAFTVPRVM | inactive
64 | RLGFISRSNLVANDVGKIFL | inactive
